Laboratory results published in patent US20130011406A1 (KOLLTAN PHARMACEUTICALS, published 2013).
Where a chain is given by its changes, count along the chain named.

B1: Fab antibody Ab19 (Fab, V domains shown)
VH: EVQLLESGGGLVQPGGSLRLSCAASGFTFSNYQMQWVRQAPGKGLEWVSSIRPSGGSTQYADSVKGRFTISRDNSKNTLYLQMNSLRAEDTAVYYCARGSSHAFDIWGQGTMVTVSS
VL: DIQMTQSPGTLSLSPGERATLSCRASQSFRSSYLAWYQQKPGQAPRLLIYDTSTRATGIPDRFSGSGSGTDFTLTISRLEPEDFAVYYCQQYGSSPPMYTFGQGTKLEIK
notes: Fab from a phage library
B2: Fab antibody Ab4 (Fab, V domains shown)
VH: EVQLLESGGGLVQPGGSLRLSCAASGFTFSWYWMYWVRQAPGKGLEWVSGIYPSGGFTSYADSVKGRFTISRDNSKNTLYLQMNSLRAEDTAVYYCARSYYYGSGSYYNSASFDYWGQGTLVTVSS
VL: DIQMTQSPSSLSASVGDRVAITCRASQSIDTYLNWYQQKPGKAPKLLIYAASKLEDGVPSRFSGSGTGTDFTLTIRSLQPEDFASYFCQQSYSSPGITFGPGTKVEIK
notes: Fab from a phage library
B3: Fab antibody Ab14 (Fab, V domains shown)
VH: EVQLLESGGGLVQPGGSLRLSCAASGFTFSRYAMWWVRQAPGKGLEWVSYIYSSGGQTGYADSVKGRFTISRDNSKNTLYLQMNSLRAEDTAVYYCARGGVTFDLWGRGTLVTVSS
VL: DIQMTQSPATLSVSPGERATLSCRASQGVSTYLAWYQQKPGQAPRLLIYGASTRATGIPARFSGSGSGTDFTLTINSLELEDFAVYYCQQRRSWPPTFGQGTKVEIK
notes: Fab from a phage library
B4: Fab antibody Ab16 (Fab, V domains shown)
VH: EVQLLESGGGLVQPGGSLRLSCAASGFTFSQYVMFWVRQAPGKGLEWVSSIYPSGGHTLYADSVKGRFTISRDNSKNTLYLQMNSLRAEDTAVYYCAKHARGYNRGYFDSWGRGTLVTVSS
VL: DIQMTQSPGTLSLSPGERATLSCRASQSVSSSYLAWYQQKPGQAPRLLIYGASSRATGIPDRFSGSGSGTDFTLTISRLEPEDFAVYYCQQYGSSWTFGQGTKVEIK
notes: Fab from a phage library
B5: Fab antibody Ab18 (Fab, V domains shown)
VH: EVQLLESGGGLVQPGGSLRLSCAASGFTFSWYAMWWVRQAPGKGLEWVSYISSSGGATRYADSVKGRFTISRDNSKNTLYLQMNSLRAEDTAVYYCATVLQYGAFDIWGQGTMVTVSS
VL: QSALTQPPSTSGTPGQRVTISCSGSSSNIGSNYVYWYQQLPGTAPKVLIYRNNKRPSGVPDRFSGSKSGTSASLAISGLRSEDEADYYCAAWDDSLNGVIFGGGTRLTVL
notes: Fab from a phage library
B6: Fab antibody Ab15 (Fab, V domains shown)
VH: EVQLLESGGGLVQPGGSLRLSCAASGFTFSNYTMMWVRQAPGKGLEWVSGIRPSGGGTMYADSVKGRFTISRDNSKNTLYLQMNSLRAEDTAVYYCASVVNHKFDNWGQGTLVTVSS
VL: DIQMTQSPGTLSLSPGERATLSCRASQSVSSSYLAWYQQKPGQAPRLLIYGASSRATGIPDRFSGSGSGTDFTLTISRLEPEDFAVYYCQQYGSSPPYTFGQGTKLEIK
notes: Fab from a phage library
B7: Fab antibody Ab13 (Fab, V domains shown)
VH: EVQLLESGGGLVQPGGSLRLSCAASGFTFSNYTMHWVRQAPGKGLEWVSVIYPSGGMTKYADSVKGRFTISRDNSKNTLYLQMNSLRAEDTAVYYCARGSTTFDYWGQGTLVTVSS
VL: DIQMTQSPGTLSLSPGERATLSCRASQSVRSNYLAWYQQKPGQAPRLLIYGASSRATGIPDRFSGSGSGTDFTLTISRLEPEDFAVYYCQQRSNWPITFGQGTRLEIK
notes: Fab from a phage library
B8: Fab antibody Ab20 (Fab, V domains shown)
VH: EVQLLESGGGLVQPGGSLRLSCAASGFTFSRYGMAWVRQAPGKGLEWVSSIRPSGGYTAYADSVKGRFTISRDNSKNTLYLQMNSLRAEDTAVYYCARLPARFDYYYGLDVWGQGTTVTVSS
VL: DIQMTQSPATLSLSPGERATLSCRASQSVNIYLAWYQQRPGQAPRLLIYDASNRAIGVPARFSGTGSGTDFTLTISSLEPEDSAVYYCQQRDSWPPRLSFGGGTKVEIK
notes: Fab from a phage library
B9: Fab antibody Ab17 (Fab, V domains shown)
VH: EVQLLESGGGLVQPGGSLRLSCAASGFTFSNYTMIWVRQAPGKGLEWVSRIWPSGGGTDYADSVKGRFTISRDNSKNTLYLQMNSLRAEDTATYYCARRVGASRYFDLWGRGTLVTVSS
VL: DIQMTQSPSSLSASVGDRVTVTCRASQNIDNYLNWYQQRPGKAPELLIYAASSLQSGVPSRFSGSGSGTDFTLTISSLQPEDFATYYCQQSYSNSRTFGQGTKVEIK
notes: Fab from a phage library
B10: Fab antibody Ab3 (Fab, V domains shown)
VH: EVQLLESGGGLVQPGGSLRLSCAASGFTFSPYNMMWVRQAPGKGLEWVSRISPSGGDTHYADSVKGRFTISRDNSKNTLYLQMNSLRAEDTAVYYCARGSRSSWSTPYYWGQGILVTVSS
VL: B5 VL with T10A, S31N, V47L, N52S, K54Q, T70A, N97I, V99P, I100V, R106K
notes: Fab from a phage library
B11: Fab antibody Ab2 (Fab, V domains shown)
VH: EVQLLESGGGLVQPGGSLRLSCAASGFTFSNYKMGWVRQAPGKGLEWVSWIYPSGGGTFQADSVKGRFTISRDNSKNTLYLQMNSLRAEDTAVYYCARVRVGSTGNFDYWGQGTLVTVSS
VL: DIQMTQSPATLSLSPGERATLYCRASQSVSNYVAWYQQRPGQAPRLLMYDTSKRATGIPARFSGSGSGTDFTLTISSLEPEDFAVYYCQQRSYWFAFGGGTKVEIK
notes: Fab from a phage library
B12: full-length human IgG1 antibody Ab1 (antibody, V domains shown)
VH: EVQLLESGGGLVQPGGSLRLSCAASGFTFSNYLMSWVRQAPGKGLEWVSSIVPSGGFTHYADSVKGRFTISRDNSKNTLYLQMNSLRAEDTAVYYCARLQTGSWRVHAFDIWGQGTMVTVSS
VL: DIQMTQSPTSLSAFVGDRVTITCQASQDIGNYLNWYQQKSGEPPKLLVYDASFLKKGVPSRFSGSGSGTQYFLTIYSLQPEDFATYFCQHSDNLSVTFGGGTKVEVKR
notes: also called human monoclonal Ab1
B13: full-length human IgG1 antibody Ab21 (antibody, V domains shown)
VH: B12 VH
VL: B12 VL with N93S
notes: Derived from Ab1 by changing the N in VL CDR3 to S to remove a glycosylation site; also called human monoclonal Ab21
B14: Fab antibody Ab12 (Fab, V domains shown)
VH: EVQLLESGGGLVQPGGSLRLSCAASGFTFSFYKMHWVRQAPGKGLEWVSGIWPSGGYTEYADSVKGRFTISRDNSKNTLYLQMNSLRAEDTAVYYCARSSGYHIDYWGQGTLVTVSS
VL: DIQMTQSPGTLSLSPGERATLYCRASQSVKSNYLAWYQQKPGQAPRLLIYGASTRATDIPDRFSGSGSGTDFTLTISRLEPEDFAVYYCQQYGSSLSYTFGQGTKLEIK
notes: Fab from a phage library
B15: Fab antibody Ab11 (Fab, V domains shown)
VH: EVQLLESGGGLVQPGGSLRLSCAASGFTFSNYRMMWVRQAPGKGLEWVSGIYPSGGGTFYADSVKGRFTISRDNSKNTLYLQMNSLRAEDTAVYYCARKKMATFAAFDIWGQGTMVTVSS
VL: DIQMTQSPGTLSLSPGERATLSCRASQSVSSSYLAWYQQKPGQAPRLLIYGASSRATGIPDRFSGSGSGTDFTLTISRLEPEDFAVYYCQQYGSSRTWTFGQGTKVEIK
notes: Fab from a phage library

These binders were tested against T1, recombinant D5 domain polypeptide of human KIT (N410 to H515, with His tag) (human, UniProt P10721 26-519) (assay: solid phase ELISA, D5 polypeptide coated on plate).
T1 construct: also called D5 domain of human KIT
T1 sequence (P10721 other isoform, or with tags, fused parts or gaps limits assumed): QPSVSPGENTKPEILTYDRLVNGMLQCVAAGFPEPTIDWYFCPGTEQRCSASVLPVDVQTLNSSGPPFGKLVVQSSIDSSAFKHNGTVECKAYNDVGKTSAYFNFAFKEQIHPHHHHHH
B1: binds.

These binders were tested against T2, recombinant D4 domain polypeptide of human KIT (V308 to K412, with His tag) (human, UniProt P10721 26-412) (assay: solid phase ELISA, polypeptide coated on plate).
T2 construct: also called D4 domain of human KIT
T2 sequence (P10721 other isoform, or with tags, fused parts or gaps limits assumed): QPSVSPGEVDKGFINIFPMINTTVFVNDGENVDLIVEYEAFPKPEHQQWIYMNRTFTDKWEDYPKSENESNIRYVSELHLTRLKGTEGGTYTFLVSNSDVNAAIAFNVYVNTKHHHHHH
B2: no binding.
B3: no binding.
B4: no binding.
B5: no binding.
B6: no binding.

These binders were tested against T1, recombinant D5 domain polypeptide of … (assay: solid phase ELISA, polypeptide coated on plate).
B2: no binding.
B3: no binding.
B4: no binding.
B5: no binding.
B6: no binding.

Each binder was assayed against T2, recombinant D4 domain polypeptide of … (assay: solid phase ELISA, D4 polypeptide coated on plate).
B7: binds.
B8: binds.
B9: binds.
B10: binds.
B11: binds.

What follows are binders tested against full-length, wild-type human KIT (human, UniProt P10721 26-976) (assay: cell-based or functional assay).
Chain of full-length, wild-type human KIT (P10721 other isoform, or with tags, fused parts or gaps limits assumed): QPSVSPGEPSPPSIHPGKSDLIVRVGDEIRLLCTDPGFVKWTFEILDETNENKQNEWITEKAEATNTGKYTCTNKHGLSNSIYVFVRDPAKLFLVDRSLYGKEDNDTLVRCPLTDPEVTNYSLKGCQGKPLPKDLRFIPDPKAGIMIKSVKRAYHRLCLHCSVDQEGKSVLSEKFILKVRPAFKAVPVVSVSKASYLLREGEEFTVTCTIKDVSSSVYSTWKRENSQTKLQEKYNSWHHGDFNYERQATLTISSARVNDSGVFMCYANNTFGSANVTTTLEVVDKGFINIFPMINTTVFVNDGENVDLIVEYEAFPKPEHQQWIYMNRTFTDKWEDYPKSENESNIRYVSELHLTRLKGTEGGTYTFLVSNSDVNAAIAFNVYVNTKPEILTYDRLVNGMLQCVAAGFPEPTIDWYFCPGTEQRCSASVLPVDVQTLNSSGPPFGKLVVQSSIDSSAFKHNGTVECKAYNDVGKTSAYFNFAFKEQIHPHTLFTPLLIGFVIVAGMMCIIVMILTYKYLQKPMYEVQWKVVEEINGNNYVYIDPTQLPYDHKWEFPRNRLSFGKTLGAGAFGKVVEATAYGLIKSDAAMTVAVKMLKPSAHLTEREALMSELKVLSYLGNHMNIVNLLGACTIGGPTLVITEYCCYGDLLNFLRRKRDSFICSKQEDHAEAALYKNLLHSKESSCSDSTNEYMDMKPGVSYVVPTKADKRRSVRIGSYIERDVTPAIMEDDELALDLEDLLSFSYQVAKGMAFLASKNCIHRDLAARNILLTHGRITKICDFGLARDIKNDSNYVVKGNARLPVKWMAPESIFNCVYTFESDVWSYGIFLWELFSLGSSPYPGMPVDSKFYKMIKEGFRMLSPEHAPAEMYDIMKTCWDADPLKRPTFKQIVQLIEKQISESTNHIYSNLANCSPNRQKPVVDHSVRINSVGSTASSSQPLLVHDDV
With B12 the “50% inhibition concentration (IC50) of tyrosine phosphorylation of the cytoplasmic domain of KIT (cell-based phospho-KIT assay)” value was 2.2 nM.
For B13, the “50% inhibition concentration (IC50) of tyrosine phosphorylation of the cytoplasmic domain of KIT (cell-based phospho-KIT assay)” value was 1.3 nM.

These binders were tested against T3, recombinant KIT D4/D5 polypeptide (D4/D5 region of human KIT, V308 to H515, with 5xHis tag) (human, UniProt P10721 26-519) (assay: solid phase ELISA, recombinant D4/D5 region coated on plate, full-length human IgG1).
T3 construct: also called recombinant antigen; recombinant IG domain four and five of the extracellular region of KIT
T3 sequence (P10721 other isoform, or with tags, fused parts or gaps limits assumed): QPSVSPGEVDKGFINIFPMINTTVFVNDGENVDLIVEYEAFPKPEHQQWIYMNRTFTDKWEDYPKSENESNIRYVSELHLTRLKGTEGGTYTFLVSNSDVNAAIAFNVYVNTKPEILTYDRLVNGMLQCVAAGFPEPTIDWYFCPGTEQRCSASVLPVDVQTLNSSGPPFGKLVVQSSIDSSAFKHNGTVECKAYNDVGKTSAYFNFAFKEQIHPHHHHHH
Experimental: Serial antibody dilutions were prepared as follows. A starting antibody concentration of 300 nM (or lower depending on sample) was diluted down 1:3 in dilution buffer. Specifically, 200 μl of the starting concentration (top row of dilution plate) was prepared, and 75 μl was diluted into 150 μl in the row below. The dilution was mixed, and the dilution step was repeated down the plate. From the dilution plate, 100 μl was transferred to the assay plate.
The binding assays were carried out as follows. The plate coated with antigen (i.e., recombinant D4/D5 region of KIT) were removed from the −80° C. freezer and were allowed to warm to room temperature. The borate buffer was removed by flicking the plate into the sink and blotting it dry. 200 μL of the blocking buffer (1% BSA/TBS) was added and incubated at room temperature for one hour. The blocking buffer was then removed by flicking the plate into the sink, and blotting dry. Then, the serially diluted antibodies and controls were added to the plate in a volume of 100 μL, and the plate was sealed and incubated at room temperature for one hour.
Binder B12 has an EC50 of 0.171 nM.
With B13 the EC50 was 0.156 nM.

What follows are binders tested against T3, recombinant KIT D4/D5 polypeptide … (assay: solid phase ELISA, D4/D5 antigen coated on plate, Fab; concentration at 50% binding).
Experimental: (§1) Coating plates with antigen: Recombinant antigen containing the D4/D5 region of the KIT extracellular Ig-like region (see FIG. 2A) were absorbed to 96-well microtiter plates. 10 μg of recombinant antigen (i.e., D4/D5 region of KIT) were diluted into 10 mL of borate buffer, and 100 μL of the antigen solution were added to each well of a 96 well plate. The 96 well plate was covered with a plate sealer, was incubated at 4° C. overnight, and then stored at −80° C. until the day of the assay.
ELISA: The plate with the absorbed antigen was removed from the −80° C. freezer and was allowed to thaw at room temperature. The borate buffer was removed by flicking the plate into the sink and blotting the plate dry. 200 μL of the blocking buffer were added to each well and allowed to incubate at room temperature for one hour. The blocking buffer was removed, again by flicking the plate into the sink. […] Subsequently, 100 μL of 2NH₂SO₄ were added to each well and immediately read on the plate reader. […]
B14 was tested, and the EC50 was at most 300 nM.
B15 gave an EC50 of at most 300 nM.

Each binder was assayed against T3, recombinant KIT D4/D5 polypeptide … (assay: solid phase ELISA, D4/D5 polypeptide coated on plate).
Experimental: as §1
ELISA: The plate with the absorbed antigen was removed from the −80° C. freezer and was allowed to thaw at room temperature. The borate buffer was removed by flicking the plate into the sink and blotting the plate dry. 200 μL of the blocking buffer were added to each well and allowed to incubate at room temperature for one hour. The blocking buffer was removed, again by flicking the plate into the sink. Then, the diluted solution of test antibodies and controls (were added to the plate in a volume of 50 μL and incubated at room temperature for one hour. The antibody solutions were removed, and the plate was washed four times with 300 μL of wash buffer with five minute incubations. After the last wash, the plate was blotted dry. The diluted secondary antibody solution was added to each well in a volume of 100 μL and allowed to incubate for one hour at room temperature. The diluted secondary antibody solution was removed, and the plate was washed four times with 300 μL of wash buffer with five minute incubations. The plate was then blotted dry, and freshly mixed substrate solution was added to each well in a volume of 100 μL and was allowed to incubate at room temperature for 30 minutes. Subsequently, 100 μL of 2NH₂SO₄ were added to each well and immediately read on the plate reader. An irrelevant antibody served as the negative control, and an anti-KIT antibody against the D4 and/or D5 domain of the extracellular region of KIT served as the positive control. OD values for each sample were obtained at a wavelength of 450 nm.
B2: binds.
B3: binds.
B4: binds.
B5: binds.
B6: binds.
